Measurements: the nanobody polyreactivity screen of Harvey et al. (2022)

Assay: yeast display, Sf9 membrane polyspecificity reagent, FACS + sequencing; frameworks hold sequencing errors
How it was run: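 Genes from sorted yeast were amplified by colony PCR, read by MiSeq 2 × 250 sequencing and filtered on CDR length. These cells carried a synthetic nanobody library in Saccharomyces cerevisiae BJ5465 and were sorted by FACS into low and high (top ~1%) gates on anti-HA and streptavidin fluorescence. Polyreactivity is labelled according to the gate of origin.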

Sequence	polyreactivity (PSR sort gate)
QVQLVESGGGLVQAGGSLRLSCAASGYIFRYYAMGRYRQAPGKERELVAAITARAGRTYYADSVKGRFTISRDNAKNTVYLQMTSLKPEDTAVYYCAAVRTKVWRGPEMDYWGQGTQVNVSS	high polyreactivity
QVQLVESGGGLVQAGGSLRLSCAASGSTFYRYTMRWYRQAPGKERELVASIRWTGGRTNYADSVKGRFTISRDNAKNTVYLQMNSLKPEDTAVYYCAAYLKYPYAASYGSWGQGTQVTVSS	high polyreactivity
QVQLVESGGGLVQAGGSLRLSCAASGFTYRTYAMGWYRQAPGKERELVAAITVSGGTYYADSVKGRFTISRDNAKNTVYFQMNSLKPEDTAVYYCTAKRFRTGFDYWGQGTQVTVSS	low polyreactivity
QVQLVESGGGLVQAGGSLRLSCAASGITFSPYAMGWYRQAPGKERELVAAISSRGGSTYYADSVKGRFTISRDNAKNTVYLQMNSLKPEDTAVYYCNALTFVRYLFHYTYWGQGTQVTVSS	high polyreactivity
QDQLEESGGGLVQAGGSLRLSSADSGRIFYSYAMGWYRQAPGKERELVAAINSGDRTNYADSVKGRFTISRDNAKNTVYLQMNSLKPEDTAVYYCATRWFAFPWDEYNYWGQGTQGTVSS	low polyreactivity
QVQLVESGGGLVQAGGSLRLSCAGSGIIFAWYAMGWYRQAPGKERELVAAITSGGGSTYYADSVKGRFTISRDNAKNTVYLQMNSLKPEDTAVYYCAADYQTIGWGYDYWGQGTQVTVSS	low polyreactivity
QVQLVESGGGLVQAGGSLLLSCAASRSTFDTNAMGWYSQAPGKERELVAAIRWSTGNTYYADSVKGRFTISRDNAKKTDYLQKNSLKPEDTAVYYCAAYTGKHYKEGYWGQVTQVTVSS	low polyreactivity
QVQLVESGGGLVQAGGSLRLSCAASGFTFVGYAMGWYRQAPGKERELVAAISSSGVSTYYADSVKGRFTISRDNAKNTVYLQMNSLKPEDTAVYYCNRVSVYRSSHLLWGGYWGQGTQVTVSS	low polyreactivity
QVQHVESGGGLVQAGGSLRLSCAPSGSTFYNNAMGWYRQAPGKERELVAAITRSGGSTYYADSVKGRFTISRDNAKNTVYLQMNSLKPEDTEVYYCNKYGYKGGVGYDYWGQGTQVTVSS	high polyreactivity
QVQLVESGGGLVQAGGSLRLSCAASGNIFLFYAMGWYRQAPGKERELVATLSWRGVGTYYADSVKGRFTISRDKAKNTGYIQMNSLKPEDTAVYYCAARGVWPEYDYWGQGTQVTVSS	low polyreactivity
QVQLVESGGGLVQAGGSLRLSCAASGSTSWIYAMGWYRQAPGKERELVAAISGRDGSTNYADSVKGRFTISRDNAKNTVYLQMNSLKPEDTAVYYCNATGRRFNRYGGDYWGQGTQVTVSS	high polyreactivity
QVQLVESGGGLVQAGGSLRLSCAASGRTFGQYVMGWYRQAPGKERELVAAISSGDSTNYADSVKGRFTISRDNAKNTVYFQMNSLKPEDTAVYYCAAVYWVLWQGSTYGYWGQGTQVTVSS	low polyreactivity
QVQLVESGGGLVQAGGSLRLSCAASGFTLDWYVMGWYRQAPGKERELVAAISSSGGRTYYADSVKGRFTISRDNAKNTVYLQRNSLKPEDTAVYYCAARNKYGGYPYGYDYWGQGTQVTVSS	high polyreactivity
QVQLVESGGGLVQAGGSLRLSCAASGRTIYYYAMGWYRQAPGKERELVAAISRSGSSTFYADSVKGRFTISRDNAKNTVYLQMNSLKPEDTAVYYCAADDYSRRVYFFFGAYDYWGQGTQVTVSS	high polyreactivity
QVQLVESGGGLVQAGGSLRLSCAASGSIFKYSAMAWYRPAPGKERELVATITSGGRTNYADSVKGRFTISRDNAKNTVYLQMNSLKPEDPAVYYCAAGSYYPYHSTTRWYVYWGQGTQVTVSS	high polyreactivity
QVQLQESGGGLVQAGGSLRLSCAASGSISRLDYMGWYRQASGKERELVAAIDNGSTTYYADSVKGRLTISRDNAKYTVYLQMNSLKPADTAVYFCAAVRGRGGTHAYWGQGTQVTVSG	low polyreactivity
QVQLVESGGGLVQAGGRLRLSCAASGTTFFLYAMGWYRQAPGKERELVASISDGSSTNYADSVKVRFTISRDNAKNTVYLQMNSLKPEDTAVYYCAADFERRRYDYWGQGTQVTVSS	low polyreactivity
QVQLVEAGGGLVQAGGSLRLSCAASAFTFSPTAMGWYRQAPGKERELGAAIDWSGDRTYYADSVKGRFTISRAHAKNTVYLQMNSLKPEDTGVYYCNVVRRSPGDYSYYYWGQGSQVTVSS	low polyreactivity
QVQLVESGGGLVQAGGSLRLSCAASGFTFAAYAMGWSRQAPGKERELVAAISRSGGSTYYADSVKGRFTISRDNAKNTVYLQMNSLKPEDTAVYYCAAYGWPKYNYWGQGTQVTVSS	high polyreactivity
QVQLVESGGGLVQAGGSLRLSCAASGRTFYYYAMGWYRPAPGKERELVAAITSGGRTYYADSVKGRFTISRDNAKNRVYLQMQSLKPEDTAVYYCAARDFFRYSLGYDYWGQGTQVTVSS	high polyreactivity
QVQLVESGGGLVQAGGILRLSCAASGSIFSSYGMGRYRQAPGKERELVAAITRGGGSTYYADSVKGRFTISRDNAKNTVYLQMNSLKPEDTAVYYCAARGWRYSYTSVLFDYWGQGTQVTVSS	high polyreactivity
QVQLVESGGGLVQAGGSLRLSCAASGLTFGTYAMGWYRPAPGKERELVAAIRSGGSTNYADSVKGRFTISRDNAKNTVYLQMNSLKPEDTAVYYCAKRYYWDRYYYWGQGTQVTVSS	high polyreactivity
